PLA+ spots per cell (PLA+ spots per cell) data for three substances are collected here from publication doi:10.1101/2025.05.22.655451.

The target of the assay is HA N-terminally tagged C99 (APP C-terminal fragment C99) (UniProt P05067). As to the kind of experiment: proximity ligation.
Chain of HA N-terminally tagged C99 (APP C-terminal fragment C99) (P05067 672-770): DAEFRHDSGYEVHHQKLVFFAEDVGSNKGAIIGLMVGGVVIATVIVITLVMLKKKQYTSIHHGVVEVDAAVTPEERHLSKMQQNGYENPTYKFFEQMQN
Consider “Chimera of the TM of MT1-MMP and the IC of MT5-MMP”, for which the PLA+ spots per cell (PLA+ spots per cell) turned out to be 25.

Substance “MT5-MMP TM/IC (transmembrane and intracellular domains, extracellular domains depleted) (from UniProt Q9Y5R2 53-645) (domain or fragment)” yielded a PLA+ spots per cell (PLA+ spots per cell) of 25. For “MT5-MMP TM/IC with alanine substitutions of the C-terminal PDZ-binding EWV motif (domain or fragment)” the value was 21.
